# Reference: publication PMC4672733 (Immunity, 2015)
# B1: purified FLAG-tagged CARD9 WT (natural protein, human, UniProt Q9H257 1-536, looked up)
# chain: MSDYENDDECWSVLEGFRVTLTSVIDPSRITPYLRQCKVLNPDDEEQVLSDPNLVIRKRKVGVLLDILQRTGHKGYVAFLESLELYYPQLYKKVTGKEPARVFSMIIDASGESGLTQLLMTEVMKLQKKVQDLTALLSSKDDFIKELRVKDSLLRKHQERVQRLKEECEAGSRELKRCKEENYDLAMRLAHQSEEKGAALMRNRDLQLEIDQLKHSLMKAEDDCKVERKHTLKLRHAMEQRPSQELLWELQQEKALLQARVQELEASVQEGKLDRSSPYIQVLEEDWRQALRDHQEQANTIFSLRKDLRQGEARRLRCMEEKEMFELQCLALRKDSKMYKDRIEAILLQMEEVAIERDQAIATREELHAQHARGLQEKDALRKQVRELGEKADELQLQVFQCEAQLLAVEGRLRRQQLETLVLSSDLEDGSPRRSQELSLPQDLEDTQLSDKGCLAGGGSPKQPFAALHQEQVLRNPHDAGLSSGEPPEKERRRLKESFENYRRKRALRKMQKGWRQGEEDRENTTGSDNTDTEGS
# Target: T1, GST-CARD9 (human, UniProt Q9H257 1-536)
# T1 sequence (looked up): B1 chain
# Assay: ELISA
binder,measurement,value
B1,binding result,binds
